The supplement of paper PMC11780869

Test system: Bacillus subtilis
Assay: cleaved RNA product abundance (RNA/gDNA barcode ratio) relative to median wild-type variant (ratio to wild type); higher = more accumulation of the downstream cleavage product
In short: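 The B. subtilis chromosome carried reporter mRNAs, truncated aprE or tetM, containing barcoded RNase Y cleavage-site windows mutagenized using oligos with a 9% error rate. After growth in LB at 37°C from OD600 0.0003 to 0.3, cleaved RNA was gel-selected, reverse transcribed and barcode-sequenced next to genomic DNA barcodes, with UMI collapsing. Each construct's RNA:gDNA barcode ratio was scaled to the median construct with the unmutated site. That scaled ratio is reported as cleaved product abundance.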

[1] = experiment (reporter, strain, medium): exp 8a: truncated aprE reporter, strain BJT201 with 2% xylose (RNase J1 expressed), cleavage site: glnRA (positions -5 to +31 mutated)
[2] = experiment (reporter, strain, medium): exp 4a: truncated aprE reporter, strain BJT201 with 2% xylose (RNase J1 expressed), cleavage site: cggR-gapA (positions -7 to +36 mutated)
[3] = experiment (reporter, strain, medium): exp 2b: truncated aprE reporter, strain BJT200, cleavage site: cggR-gapA (positions -7 to +36 mutated)
[4] = experiment (reporter, strain, medium): exp 6: tetM reporter, strain 168, cleavage site: cggR-gapA (positions -7 to +36 mutated)

| Sequence | cleaved RNA product abundance [1] | cleaved RNA product abundance [2] | further results |
| --- | --- | --- | --- |
| CGACATGTCCCGCTTCTTTCATTATTCCGTTAGCAACTGTTTAGCTATATACATTTACCTTTTAAGAGGAGGAAT | 0.706 |  |  |
| ACAGACGAAGGAGCCGCAAAGAAGTTATTAAGCGATGAATACTCCCTCAATATAAATATCTCTCACTTATTTAAA |  | 0.102 |  |
| CGACATGTCCCGCTTCTTTCATTAATCCGTTAGCAACTGATTTGCTATATACATTTACCTTTTAAGAGGAGGAAT | 0.96 |  |  |
| ACAGACGAAGGAGCCGCAAAGAAGTTATTAAGGGATGAATAATCCCTCAATATAAATATTTCTCACTTATTTAAA |  | 0.864 | cleaved RNA product abundance [3]: 1 |
| ACAGACGAAGGAGCCGCAAAGAAATTATTAAGGGATGAATAATCCCTCAATATATATATCTCTCACTTATTTAAA |  | 0.766 |  |
| ACAGACGAAGGAGCCGCAAAGAAGTTATTATGGGATGAAAAATCCCTCAATATAAATATCTCTCACTTATTTAAA |  | 0.334 |  |
| ACAGACGAAGGAGCCGCAAAGAAGTTATCAAATGATGAATAATCCCTCAATATAAATATCTCTCACTTATTTAAA |  | 0.123 |  |
| CGACATGTCCCGCTTCTTTCATTAATCCGTTAGCAAATGTTTTGCTATATACATTAACCTTTTAAGAGGAGGAAT | 1.13 |  |  |
| CGACATGTCCCGCTTCTTTCATTAATCCTTTAGCAACTGTTTTGCTATATACATTTCCCTTTTAAGAGGAGGAAT | 0.343 |  |  |
| ACAGACGAAGGAGCCGCAAAGTAGTTATTAAGGGATGAATAACCCCTCAATATAAATATCTCTCACTTATTTAAA |  | 0.762 |  |
| CGACATGTCCCGCTTCTTTCATTAATACGTTAGCAACTGTTTTGATATATACATTTACCTTTTAAGAGGAGGAAT | 0.527 |  |  |
| CGACATGTCCCGCTTCTTTCATTATTCCGTTAGCAACTGTTTTGCTATATACATCTACCTTTTAAGAGGAGGAAT | 1.15 |  |  |
| ACAGACGAAGGAGCCGCAAAGAAGTTATTAACGGATGAATAATCCCCCAATATAAATATCTCTCACTTATTTAAA |  | 0.173 |  |
| ACAGACGAAGGAGCCGCAAAGAAGTTATTAAGGGATTAATAAACCCTCAATATAAATATCTCTCACTTATTTAAA |  | 0.575 | cleaved RNA product abundance [3]: 0.559 |
| ACAGACGAAGGAGCCGCAAAGAAGTTATTAAGGGATGAATAATCCTTCGATATAAATATCTCTCACTTATTTAAA |  | 0.257 |  |
| ACAGACGAAGGAGCCGCAAAGAAGTTATTAAGGGATGAATAATTCCGCAATATAAATATCTCTCACTTATTTAAA |  | 0.188 |  |
| ACAGACGAAGGAGCCGCAAAGAAGTTATTAATGGATGAATAATCCCTCAATATAAATATCTCTCACTTATTTAAA |  | 0.155 | cleaved RNA product abundance [3]: 0.122; cleaved RNA product abundance [4]: 0.174 |
| ACAGACGAAGGAGCCGCAAAGAAGTCATTAAGGGATGAATAATCGCTCAATATAAATATCTCTCACTTATTTAAA |  | 0.107 |  |
| CGACATGTCCCGCTTCTTTCATTAATCCGTTACCAACTGTTTAGCTATATACATTTACCTTTTAAGAGGAGGAAT | 0.208 |  |  |
| ACAGACGAAGGAGCCGCAAAGAAGTTATTAAGGTATGAATAAGCCCTCAATATAAATATCTCTCACTTATTTAAA |  | 0.13 |  |
| ACAGACGAAGGAGCCGCAAAGAAGTTATTAAGGGACGAATAATCCCTCAAAATAAATATCTCTCACTTATTTAAA |  | 0.346 |  |

| Sequence | cleaved RNA product abundance [1] | cleaved RNA product abundance [2] | further results |
| --- | --- | --- | --- |
| ACAGACGAAGGAGCCGCAAAGAAGTTATGAAGGGATGAATAATCCCTCAATATAAATATCTCTCACTTATTTAAA |  | 0.502 | cleaved RNA product abundance [3]: 0.384; cleaved RNA product abundance [4]: 0.205 |
| ACAGACGAAGGAGCCGCAAAGAAGTTATTAAGGTATGAATAATCCCTCAATATAAATGTCTCTCACTTATTTAAA |  | 0.107 |  |
| ACAGACGAAGGAGCCGCAAAGAAGTTATTTAGGGATGAATAATCTCTCAATATAAATATCTCTCACTTATTTAAA |  | 0.646 |  |
| ACAGACGAAGGAGCCGCAAAGAAGCTATTAAGGGATGAATAATACCTCAATATAAATATCTCTCACTTATTTAAA |  |  | cleaved RNA product abundance [3]: 0.0928 |
| ACAGACGAAGGAGCCGCAAAGAAGTTCTTAAGGGATGAAGAATCCCTCAATATAAATATCTCTCACTTATTTAAA |  |  | cleaved RNA product abundance [3]: 0.14 |
| ACAGACGAAGGAGCCGCAAAGAGGTTATTAAGGGATGAATAATCCATCAATATAAATATCTCTCACTTATTTAAA |  |  | cleaved RNA product abundance [3]: 0.176 |
| ACAGACGAAGGAGCCGCAAATAAGTTATTAATGGATGAATAATCCCTCATTATAAATATCTCTCACTTATTTAAA |  | 0.135 |  |
| CGACATGTCCCGCTTCTTTCATTAATCCGTTAGCAACTGTTTGGCTATATACATTTAACTTTTAAGAGGAGGAAT | 0.488 |  |  |
| ACAGACGAAGGAGCCGCAAAGAAGTTATTATGGGATGAATAATCCCTGAATATAAATATCTCTCACTTATTTAAA |  | 0.663 |  |
| CGACATGTCCCGCTTCTTTCATTAATCCGTTAGCATCTGTTTTGCTATATACATTTACATTTTAAGAGGAGGAAT | 1.1 |  |  |
| CGACATGTCCCGCTTCTTTCATTAATCCCTTAGCAACTGTTTTGCTGTATACATTTACCTTTTAAGAGGAGGAAT | 0.108 |  |  |
| ACAGACGAAGGAGCCGCAAAGAAGTTATTAAGGGATGTATAATCCCTTAATATAAATATCTCTCACTTATTTAAA |  | 0.445 |  |
| CGACATGTCCCGCTTCTTTCATTAATACGTTAGCTACTGTTTTGCTATATACATTTACCTTTTAAGAGGAGGAAT | 0.562 |  |  |
| ACAGACGAAGGAGCCGCAAAGAAGTTATTAAGGGATGAATTTTCCCTCAATATAAATATCTCTCACTTATTTAAA |  | 0.73 |  |
| CGACATGTCCCGCTTCTTTCATTAATCCGTAAGCAACTGTTTTGCTATATACAATTACCTTTTAAGAGGAGGAAT | 0.478 |  |  |
| ACAGACGAAGGAGCCGCAATGAAGTTATTAAGGGATGAATACTCCCTCAATATAAATATCTCTCACTTATTTAAA |  |  | cleaved RNA product abundance [3]: 0.379 |
| CGACATGTCCCGCTTCTTTCATTAATCCGTTAGCAACTGTTTTGCTAAATACATTTATCTTTTAAGAGGAGGAAT | 0.814 |  |  |
| CGACATGTCCCGCTTCTTTCATTAATCCGTTCGCAACTGTTTTGCTATATACATTTACGTTTTAAGAGGAGGAAT | 0.342 |  |  |
| ACAGACGAAGGAGCCGCAAAAAAGTTATTAAGGGATGAATAATCCCGCAATATAAATATCTCTCACTTATTTAAA |  | 0.231 | cleaved RNA product abundance [3]: 0.141 |
| ACAGACGAAGGAGCCGCAAAGAAGTTATTAAGTGATCAATAATCCCTCAATATAAATATCTCTCACTTATTTAAA |  | 0.137 | cleaved RNA product abundance [3]: 0.0674 |
| ACAGACGAAGGAGCCGCAAAGAAGTAATTAAGGGATGAATAATCCCTCAACATAAATATCTCTCACTTATTTAAA |  | 0.21 |  |

| Sequence | cleaved RNA product abundance [1] | cleaved RNA product abundance [2] | further results |
| --- | --- | --- | --- |
| ACAGACGAAGGAGCCGCAATGAAGTTAATAAGGGATGAATAATCCTTCAATATAAATATCTCTCACTTATTTAAA |  | 0.263 |  |
| ACAGACGAAGGAGCCGCAAAAAAGTTATTCAGGGATGAATAATCCCTCAATATAAATATCTCTCACTTATTTAAA |  | 0.962 |  |
| ACAGACGAAGGAGCCGCAAAGAAGTTATTAAGTGATGAATAACCCCTCAATATAAATATCTCTCACTTATTTAAA |  | 0.109 |  |
| ACAGACGAAGGAGCCGCAAAGAAGTTATTAAGGGATCCATAATCCCTCAATATAAATATCTCTCACTTATTTAAA |  | 0.481 |  |
| CGACATGTCCCGCTTCTTTCATTAATCCGTTAACAACTGTTTTCCTATATACATTTACCTTTTAAGAGGAGGAAT | 0.263 |  |  |
| CGACATGTCCCGCTTCTTTCATTAATCCGTTAGCAACTGTTTTTCTCTATACATTTACCTTTTAAGAGGAGGAAT | 0.337 |  |  |
| ACAGACGAAGGAGCCGCAAAGGAGTTATTAAGGGATGAATAATCCCTCAATATCAATATCTCTCACTTATTTAAA |  | 0.134 |  |
| CGACATGTCCCGCTTCTTTCATTAATCCGTTAGCAATTGTGTTGCTATATACATTTACCTTTTAAGAGGAGGAAT | 0.947 |  |  |
| ACAGACGAAGGAGCCGCAAAGAAGTTATTAATGGATGAATAATCCCTCAATATAAACATCTCTCACTTATTTAAA |  | 0.116 |  |
| CGACATGTCCCGCTTCTTTCATTATTCCGTTAGCAACTGTTATGCTATATACATTTACCTTTTAAGAGGAGGAAT | 0.76 |  |  |
| CGACATGTCCCGCTTCTTTCATTAATCCGTTAGCAATTGTTTTGCTATATACATGTACCTTTTAAGAGGAGGAAT | 0.526 |  |  |
| ACAGACGAAGGAGCCGCAAAGAAGTTATTAAGGGATGAATAATCCCTCAATGTAAATATCTCTCACTTATTTAAA |  | 0.13 | cleaved RNA product abundance [3]: 0.139; cleaved RNA product abundance [4]: 0.154 |
| CGACATGTCCCGCTTCTTTCATTAATCCGGTAGCAACTGTTTTGCAATATACATTTACCTTTTAAGAGGAGGAAT | 0.533 |  |  |
| ACAGACGAAGGAGCCGCAAAGAAGTAATTAAGGGATGAATAATCCCTCAAAATAAATATCTCTCACTTATTTAAA |  | 0.215 | cleaved RNA product abundance [3]: 0.16 |
| ACAGACGAAGGAGCCGCAAAGAAGTTATTAAGAGATGACTAATCCCTCAATATAAATATCTCTCACTTATTTAAA |  | 0.0924 | cleaved RNA product abundance [3]: 0.082 |
| CGACATGTCCCGCTTCTTTCATTAATCCGTTAGCCACTGTATTGCTATATACATTTACCTTTTAAGAGGAGGAAT | 0.376 |  |  |
| ACAGACGAAGGAGCCGCAAAGAAGTTATTACGGGATGAATAATCCCTCAATATAAATATTTCTCACTTATTTAAA |  | 0.399 |  |
| CGACATGTCCCGCTTCTTTCATTAATACGTTAGCAACTTTTTTGCTATATACATTTACCTTTTAAGAGGAGGAAT | 0.721 |  |  |
| ACAGACGAAGGAGCCGCAAAGAAATTATTAAGGGATGAATTATCCCTCAATATAAATATCTCTCACTTATTTAAA |  | 0.711 | cleaved RNA product abundance [3]: 0.539 |
